Results on one substance are retold here after US20080021198.

The target in the data set is PP2A A-C hetero-dimer (bovine brain, unmethylated) (UniProt Q32PI5).
Sequence of PP2A A-C hetero-dimer (bovine brain, unmethylated) (Q32PI5 2-589, chain 1 of 2): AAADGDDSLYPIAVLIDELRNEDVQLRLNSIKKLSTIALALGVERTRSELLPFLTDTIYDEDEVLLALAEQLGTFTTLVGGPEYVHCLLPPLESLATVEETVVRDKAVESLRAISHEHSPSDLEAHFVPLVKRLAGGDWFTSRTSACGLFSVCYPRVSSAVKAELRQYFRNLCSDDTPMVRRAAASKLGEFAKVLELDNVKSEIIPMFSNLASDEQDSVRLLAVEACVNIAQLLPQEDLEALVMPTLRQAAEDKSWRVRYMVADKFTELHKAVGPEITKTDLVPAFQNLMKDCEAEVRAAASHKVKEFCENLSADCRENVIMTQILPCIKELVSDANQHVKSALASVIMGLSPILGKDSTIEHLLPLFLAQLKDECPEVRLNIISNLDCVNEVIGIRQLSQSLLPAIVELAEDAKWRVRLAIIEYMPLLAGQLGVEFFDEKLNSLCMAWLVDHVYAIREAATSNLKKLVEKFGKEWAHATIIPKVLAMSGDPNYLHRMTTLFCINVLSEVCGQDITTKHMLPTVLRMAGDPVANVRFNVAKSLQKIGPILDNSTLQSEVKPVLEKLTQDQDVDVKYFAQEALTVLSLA
Sequence of PP2A A-C hetero-dimer (bovine brain, unmethylated) (chain, as listed by the source, chain 2 of 2): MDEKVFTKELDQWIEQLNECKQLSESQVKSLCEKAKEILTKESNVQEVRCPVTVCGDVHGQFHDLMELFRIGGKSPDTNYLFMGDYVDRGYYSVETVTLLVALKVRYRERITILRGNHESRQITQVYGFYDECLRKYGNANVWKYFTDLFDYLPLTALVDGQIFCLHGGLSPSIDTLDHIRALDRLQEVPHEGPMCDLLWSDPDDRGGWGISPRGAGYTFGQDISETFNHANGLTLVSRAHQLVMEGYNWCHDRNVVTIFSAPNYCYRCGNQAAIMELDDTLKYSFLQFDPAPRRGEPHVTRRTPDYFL

On to “PMTΔ19 (human PP2A methyl transferase with the N-terminal 19 residues truncated)”, for which the “enzyme activity (in vitro enzymatic assay, FIG. 7)” value is on record as “Truncation of the N-terminal 19 amino acids did not appear to have any effect on the enzyme activity”.
